In this test the target is human interferon γ (human) (UniProt P01579). The test can be described thus: cell-based or functional assay.

Changes are numbered by the printed parent chain.

human interferon γ (human), sequence (P01579 24-166 limits assumed): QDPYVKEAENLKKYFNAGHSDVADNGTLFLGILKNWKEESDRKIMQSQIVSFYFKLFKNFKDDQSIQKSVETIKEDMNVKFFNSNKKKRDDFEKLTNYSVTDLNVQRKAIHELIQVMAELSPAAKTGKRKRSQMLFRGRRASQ

B1: hIFNγRα(24-239).TG.hIFNγRβ.SG.hFc (Fc fusion, not shown: a dimerising Fc or GST)
chain: LGPSSVPTPTNVTIESYNMNPIVYWEYQIMPQVPVFTVEVKNYGVKNSEWIDACINISHHYCNISDHVGDPSNSLWVRVKARVGQKESAYAKSEEFAVCRDGKIGPPKLDIRKEEKQIMIDIFHPSVFVNGDEQEVDYDPETTCYIRVYNVYVRMNGSEIQYKILTQKEDDCDEIQCQLAIPVSSLNSQYCVSAEGVLHVWGVTTEKSKEVCITIFTGSQLPAPQHPKIRLYNAEQVLSWEPVALSNSTRPVVYQVQFKYTDSKWFTADIMSIGVNCTQITATECDFTAASPSAGFPMDFNVTLRLRAELGALHSAWVTMPWFQHYRNVTVGPPENIEVTPGEGSLIIRFSSPFDIADTSTAFFCYYVHYWEKGGIQQVKGPFRSNSISLDNLKPSRVYCLQVQAQLLWNKSNIFRVGHLSNISCYETMADASTELQSG
B1 gave an IC50 (M), GAS-luciferase bioassay in HEK293 cells of 3.2e-09 M and an IC50 (M), ISRE-luciferase bioassay in HEK293 cells of 1.3e-09 M.

B2: hIFNγRα(24-239).SG.hFc (Fc fusion, not shown: a dimerising Fc or GST)
chain: LGPSSVPTPTNVTIESYNMNPIVYWEYQIMPQVPVFTVEVKNYGVKNSEWIDACINISHHYCNISDHVGDPSNSLWVRVKARVGQKESAYAKSEEFAVCRDGKIGPPKLDIRKEEKQIMIDIFHPSVFVNGDEQEVDYDPETTCYIRVYNVYVRMNGSEIQYKILTQKEDDCDEIQCQLAIPVSSLNSQYCVSAEGVLHVWGVTTEKSKEVCITIFSG
Consider B2, for which the IC50 (M), GAS-luciferase bioassay in HEK293 cells is 2.1e-08 M and the IC50 (M), ISRE-luciferase bioassay in HEK293 cells came to 1.2e-08 M.

B3: hIFNγRα(24-239).TG.hFc.ARA.hIFNγRβ (Fc fusion, not shown: a dimerising Fc or GST)
chain (part 1 of 2): B2 chain with S217T
chain (part 2 of 2): ARASQLPAPQHPKIRLYNAEQVLSWEPVALSNSTRPVVYQVQFKYTDSKWFTADIMSIGVNCTQITATECDFTAASPSAGFPMDFNVTLRLRAELGALHSAWVTMPWFQHYRNVTVGPPENIEVTPGEGSLIIRFSSPFDIADTSTAFFCYYVHYWEKGGIQQVKGPFRSNSISLDNLKPSRVYCLQVQAQLLWNKSNIFRVGHLSNISCYETMADASTELQ
For the molecule B3, the IC50 (M), GAS-luciferase bioassay in HEK293 cells amounted to 1.1e-08 M and the IC50 (M), ISRE-luciferase bioassay in HEK293 cells was found to be 6e-09 M.

B4: hIFNγRα(23-239).SG.hFc (Fc fusion, not shown: a dimerising Fc or GST)
chain: DLGPSSVPTPTNVTIESYNMNPIVYWEYQIMPQVPVFTVEVKNYGVKNSEWIDACINISHHYCNISDHVGDPSNSLWVRVKARVGQKESAYAKSEEFAVCRDGKIGPPKLDIRKEEKQIMIDIFHPSVFVNGDEQEVDYDPETTCYIRVYNVYVRMNGSEIQYKILTQKEDDCDEIQCQLAIPVSSLNSQYCVSAEGVLHVWGVTTEKSKEVCITIFSG
B4 displayed an IC50 (M), GAS-luciferase bioassay in HEK293 cells of 4.6e-09 M and an IC50 (M), ISRE-luciferase bioassay in HEK293 cells of 2.57e-09 M.

B5: hIFNγRα(23-239).TG.hFc.ARA.hIFNγRβ (Fc fusion, not shown: a dimerising Fc or GST)
chain (part 1 of 2): B4 chain with S218T
chain (part 2 of 2): B3 chain (part 2 of 2)
Take B5: the IC50 (M), GAS-luciferase bioassay in HEK293 cells worked out at 1e-09 M and the IC50 (M), ISRE-luciferase bioassay in HEK293 cells is 7.9e-10 M.

B6: hIFNγRα(33-239).TG.hIFNγRβ.SG.hFc (Fc fusion, not shown: a dimerising Fc or GST)
chain: TNVTIESYNMNPIVYWEYQIMPQVPVFTVEVKNYGVKNSEWIDACINISHHYCNISDHVGDPSNSLWVRVKARVGQKESAYAKSEEFAVCRDGKIGPPKLDIRKEEKQIMIDIFHPSVFVNGDEQEVDYDPETTCYIRVYNVYVRMNGSEIQYKILTQKEDDCDEIQCQLAIPVSSLNSQYCVSAEGVLHVWGVTTEKSKEVCITIFTGSQLPAPQHPKIRLYNAEQVLSWEPVALSNSTRPVVYQVQFKYTDSKWFTADIMSIGVNCTQITATECDFTAASPSAGFPMDFNVTLRLRAELGALHSAWVTMPWFQHYRNVTVGPPENIEVTPGEGSLIIRFSSPFDIADTSTAFFCYYVHYWEKGGIQQVKGPFRSNSISLDNLKPSRVYCLQVQAQLLWNKSNIFRVGHLSNISCYETMADASTELQSG
On to B6, for which the IC50 (M), GAS-luciferase bioassay in HEK293 cells was 1.3e-08 M and the IC50 (M), ISRE-luciferase bioassay in HEK293 cells was found to be 2.4e-07 M.

B7: hIFNγRα(23-239).TG.hIFNγRβ.SG.hFc (Fc fusion, not shown: a dimerising Fc or GST)
chain: DLGPSSVPTPTNVTIESYNMNPIVYWEYQIMPQVPVFTVEVKNYGVKNSEWIDACINISHHYCNISDHVGDPSNSLWVRVKARVGQKESAYAKSEEFAVCRDGKIGPPKLDIRKEEKQIMIDIFHPSVFVNGDEQEVDYDPETTCYIRVYNVYVRMNGSEIQYKILTQKEDDCDEIQCQLAIPVSSLNSQYCVSAEGVLHVWGVTTEKSKEVCITIFTGSQLPAPQHPKIRLYNAEQVLSWEPVALSNSTRPVVYQVQFKYTDSKWFTADIMSIGVNCTQITATECDFTAASPSAGFPMDFNVTLRLRAELGALHSAWVTMPWFQHYRNVTVGPPENIEVTPGEGSLIIRFSSPFDIADTSTAFFCYYVHYWEKGGIQQVKGPFRSNSISLDNLKPSRVYCLQVQAQLLWNKSNIFRVGHLSNISCYETMADASTELQSG
For the molecule B7, the IC50 (M), GAS-luciferase bioassay in HEK293 cells is 1.9e-10 M and the IC50 (M), ISRE-luciferase bioassay in HEK293 cells turned out to be 5.3e-11 M.

The values above are taken from US20070020283A1.
